Source: US20210047426A1

Key:
[1] = target: Cynomolgus CD3ε/δ (soluble recombinant cynomolgus monkey CD3) (cynomolgus monkey) (UniProt Q95LI5); test: BIACORE surface plasmon resonance, recombinant cynomolgus monkey CD3 directly immobilized, 1:1 binding fit
[2] = target: Human CD3ε/δ (soluble recombinant human CD3) (human) (UniProt P07766); test: BIACORE surface plasmon resonance, recombinant human CD3 directly immobilized, 1:1 binding fit
[3] = target: Human CD3ε/δ (soluble recombinant human CD3) (human) (UniProt P07766); test: SPR (BIAcore 3000), antigen immobilized on the chip, DART-A injected, 1:1 Langmuir fit, mean of 3 experiments
[4] = target: Cynomolgus CD3ε/δ (soluble recombinant cynomolgus monkey CD3) (cynomolgus monkey) (UniProt Q95LI5); test: as above

Sequence of Human CD3ε/δ (soluble recombinant human CD3) (human) (P07766 23-126, stated change not applied, chain 1 of 2): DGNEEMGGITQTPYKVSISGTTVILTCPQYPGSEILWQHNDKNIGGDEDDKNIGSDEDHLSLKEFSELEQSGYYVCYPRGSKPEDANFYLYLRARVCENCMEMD
Sequence of Human CD3ε/δ (soluble recombinant human CD3) (human) (P04234 22-105, stated change not applied, chain 2 of 2, further chain): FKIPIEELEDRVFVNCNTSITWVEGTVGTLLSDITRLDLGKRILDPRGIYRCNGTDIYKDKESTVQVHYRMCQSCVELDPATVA
Sequence of Cynomolgus CD3ε/δ (soluble recombinant cynomolgus monkey CD3) (cynomolgus monkey) (Q95LI5 22-117, stated change not applied, chain 1 of 2): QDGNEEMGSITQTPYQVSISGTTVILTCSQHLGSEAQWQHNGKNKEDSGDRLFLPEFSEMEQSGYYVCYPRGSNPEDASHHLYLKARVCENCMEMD
Sequence of Cynomolgus CD3ε/δ (soluble recombinant cynomolgus monkey CD3) (cynomolgus monkey) (Q95LI8 22-105, stated change not applied, chain 2 of 2, further chain): as the sequence (P04234 22-105, stated change not applied, chain 2 of 2, further chain) above, with I5V, N15K, I20V, S32T, D33N, I34N, T64A, S74N, V83L counted along it

Kd [1]: 9 nM
Kd [2]: 12.3 nM
Kd [3]: 9 nM
koff [3]: 0.005 s⁻¹
kon [3]: 570000 M⁻¹ s⁻¹
Kd [4]: 9.2 nM
koff [4]: 0.005 s⁻¹
kon [4]: 550000 M⁻¹ s⁻¹
B1: Sequence-Optimized CD123 × CD3 Bi-Specific Diabody (DART-A) (bispecific antibody)
chain 1: QAVVTQEPSLTVSPGGTVTLTCRSSTGAVTTSNYANWVQQKPGQAPRGLIGGTNKRAPWTPARFSGSLLGGKAALTITGAQAEDEADYYCALWYSNLWVFGGGTKLTVLGGGGSGGGGEVQLVQSGAELKKPGASVKVSCKASGYTFTDYYMKWVRQAPGQGLEWIGDIIPSNGATFYNQKFKGRVTITVDKSTSTAYMELSSLRSEDTAVYYCARSHLLRASWFAYWGQGTLVTVSSGGCGGGEVAALEKEVAALEKEVAALEKEVAALEK
chain 2: DFVMTQSPDSLAVSLGERVTMSCKSSQSLLNSGNQKNYLTWYQQKPGQPPKLLIYWASTRESGVPDRFSGSGSGTDFTLTISSLQAEDVAVYYCQNDYSYPYTFGQGTKLEIKGGGSGGGGEVQLVESGGGLVQPGGSLRLSCAASGFTFSTYAMNWVRQAPGKGLEWVGRIRSKYNNYATYYADSVKDRFTISRDDSKNSLYLQMNSLKTEDTAVYYCVRHGNFGNSYVSWFAYWGQGTLVTVSSGGCGGGKVAALKEKVAALKEKVAALKEKVAALKE
